Data set [1] addresses T1, SRA domain of mouse UHRF1 (Mus musculus, UniProt Q8VDF2 419-628).
T1 sequence: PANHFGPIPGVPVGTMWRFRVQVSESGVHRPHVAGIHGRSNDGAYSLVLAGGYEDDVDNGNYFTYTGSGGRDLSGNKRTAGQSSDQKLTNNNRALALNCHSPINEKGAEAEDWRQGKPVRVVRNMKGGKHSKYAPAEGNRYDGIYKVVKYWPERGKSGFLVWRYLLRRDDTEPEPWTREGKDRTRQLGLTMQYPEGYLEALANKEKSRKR
Nature of the data set: MST; MST: PBS-T (0.05% Tween-20), 50 nM labelled SRA, 20 min, room temperature; EMSA: 20 mM Tris-HCl pH 7.5, 150 mM NaCl, 0.5 mM EDTA, 1 mM DTT, 100 ng/ul BSA, 250 nM of each DNA, 4.69-300 nM protein, 30 min on ice, 6% PAGE 0.5x TBE; melting: 50 mM Tris-HCl pH 7.5, 0.5 mM b-ME, 10 mM EDTA. As to conditions: protein: recombinant, tags: His6, NT-647 (RED-tris-NTA) label in MST.

A further data set concerns the target T2, mUHRF2-GFP (Mus musculus, UniProt Q7TMI3 1-803).
T2 sequence: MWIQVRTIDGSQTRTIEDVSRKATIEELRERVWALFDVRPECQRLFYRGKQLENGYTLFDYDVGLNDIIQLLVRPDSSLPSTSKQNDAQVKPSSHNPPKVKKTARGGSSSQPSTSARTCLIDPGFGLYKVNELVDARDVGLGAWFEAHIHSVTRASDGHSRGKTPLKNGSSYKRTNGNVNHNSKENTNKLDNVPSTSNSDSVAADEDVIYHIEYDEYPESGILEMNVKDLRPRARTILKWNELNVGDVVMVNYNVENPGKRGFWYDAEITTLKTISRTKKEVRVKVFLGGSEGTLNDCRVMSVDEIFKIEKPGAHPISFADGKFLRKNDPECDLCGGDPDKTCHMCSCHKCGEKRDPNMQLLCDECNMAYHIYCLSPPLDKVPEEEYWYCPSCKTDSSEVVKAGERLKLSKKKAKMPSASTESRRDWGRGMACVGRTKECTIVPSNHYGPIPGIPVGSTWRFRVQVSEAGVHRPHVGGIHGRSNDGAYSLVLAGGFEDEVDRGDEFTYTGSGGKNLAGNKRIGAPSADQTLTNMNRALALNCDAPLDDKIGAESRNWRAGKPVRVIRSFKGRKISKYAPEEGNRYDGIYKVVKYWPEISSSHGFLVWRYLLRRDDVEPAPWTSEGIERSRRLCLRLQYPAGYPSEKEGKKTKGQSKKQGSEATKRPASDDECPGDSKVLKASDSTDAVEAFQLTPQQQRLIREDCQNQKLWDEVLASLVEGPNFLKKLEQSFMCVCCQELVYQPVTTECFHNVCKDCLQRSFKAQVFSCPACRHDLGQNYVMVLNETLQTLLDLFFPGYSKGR
Nature of the data set: EMSA, two-colour competition; ATTO647N C-C' DNA as competitor; MST: PBS-T (0.05% Tween-20), 50 nM labelled SRA, 20 min, room temperature; EMSA: 20 mM Tris-HCl pH 7.5, 150 mM NaCl, 0.5 mM EDTA, 1 mM DTT, 100 ng/ul BSA, 250 nM of each DNA, 4.69-300 nM protein, 30 min on ice, 6% PAGE 0.5x TBE; melting: 50 mM Tris-HCl pH 7.5, 0.5 mM b-ME, 10 mM EDTA. The settings on record: protein: recombinant; tags: GFP (C-terminal by name); label: ATTO550 (EMSA). A general note: In EMSA bound probe runs differently from free probe, usually more slowly.

The next data set has as its target T3, GFP-mUHRF1 (Np95) (Mus musculus, UniProt Q8VDF2 1-782).
T3 sequence: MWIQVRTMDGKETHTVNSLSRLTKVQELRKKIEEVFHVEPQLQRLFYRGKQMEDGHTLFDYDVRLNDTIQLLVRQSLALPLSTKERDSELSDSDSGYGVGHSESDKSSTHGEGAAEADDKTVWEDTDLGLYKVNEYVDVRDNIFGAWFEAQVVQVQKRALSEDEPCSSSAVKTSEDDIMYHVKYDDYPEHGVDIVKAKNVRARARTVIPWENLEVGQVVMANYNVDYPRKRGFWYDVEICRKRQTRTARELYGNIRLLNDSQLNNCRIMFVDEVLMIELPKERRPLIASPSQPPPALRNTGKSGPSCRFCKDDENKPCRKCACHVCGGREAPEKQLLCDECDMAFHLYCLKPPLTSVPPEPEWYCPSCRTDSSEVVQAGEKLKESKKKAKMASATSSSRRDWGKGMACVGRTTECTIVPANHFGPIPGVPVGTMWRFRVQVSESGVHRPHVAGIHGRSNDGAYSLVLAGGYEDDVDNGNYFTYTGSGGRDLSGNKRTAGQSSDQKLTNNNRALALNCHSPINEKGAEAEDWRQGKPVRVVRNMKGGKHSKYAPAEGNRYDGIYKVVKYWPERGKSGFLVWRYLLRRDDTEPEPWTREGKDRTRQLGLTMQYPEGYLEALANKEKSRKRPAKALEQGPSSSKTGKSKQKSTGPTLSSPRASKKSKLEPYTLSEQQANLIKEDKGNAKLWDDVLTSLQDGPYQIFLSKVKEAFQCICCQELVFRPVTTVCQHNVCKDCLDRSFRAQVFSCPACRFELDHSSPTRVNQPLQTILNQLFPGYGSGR
The description is as above. The settings on record: protein: recombinant; tags: GFP (N-terminal by name); label: ATTO550 (EMSA).

Our source for the Kd and binding signal values is PMC7034832, “Systematic analysis of the binding behaviour of UHRF1 towards different methyl- and carboxylcytosine modification patterns at CpG dyads”.

As a reminder, the Kd is the constant that tells how readily two partners part at equilibrium.

B1: 42 bp C-C' (dsDNA)
DNA 1: GGATGATGACTCTTCTGGTCCGGATGGTAGTTAAGTGTTGAG
DNA 2: CTCAACACTTAACTACCATCCGGACCAGAAGAGTCATCATCC
modifications: none
Turning to B1, in data set [1] (label: ATTO550 or ATTO647N (EMSA)), the dissociation constant (Kd) is 1100 ± 150 nM.

B2: 42 bp mC-caC' (dsDNA)
DNA 1: GGATGATGACTCTTCTGGTCCGGATGGTAGTTAAGTGTTGAG
DNA 2: CTCAACACTTAACTACCATCCGGACCAGAAGAGTCATCATCC
modifications: 5-methylcytosine on one strand, 5-carboxylcytosine on the other at central CpG
For B2, the Kd in data set [1] came out at 390 ± 110 nM.

B3: 42 bp caC-caC' (dsDNA)
DNA 1: GGATGATGACTCTTCTGGTCCGGATGGTAGTTAAGTGTTGAG
DNA 2: CTCAACACTTAACTACCATCCGGACCAGAAGAGTCATCATCC
modifications: 5-carboxylcytosine at central CpG, both strands
Consider B3, for which the binding signal with mUHRF2-GFP and with GFP-mUHRF1 (Np95) was ~2 fold vs C-C' throughout. For the same molecule, the Kd in data set [1] (label: ATTO550 (EMSA)) stood at 230 ± 50 nM.

B4: 42 bp caC-C' (dsDNA)
DNA 1: GGATGATGACTCTTCTGGTCCGGATGGTAGTTAAGTGTTGAG
DNA 2: CTCAACACTTAACTACCATCCGGACCAGAAGAGTCATCATCC
modifications: 5-carboxylcytosine at central CpG, one strand
For B4, the Kd in data set [1] (label: ATTO550 (EMSA)) was 1100 ± 290 nM.

B5: 42 bp mC-C' (dsDNA)
DNA 1: GGATGATGACTCTTCTGGTCCGGATGGTAGTTAAGTGTTGAG
DNA 2: CTCAACACTTAACTACCATCCGGACCAGAAGAGTCATCATCC
modifications: 5-methylcytosine at central CpG, one strand
As for B5, in data set [1] (label: ATTO550 (EMSA)), the Kd was found to be 750 ± 110 nM. The binding signal in the data set with GFP-mUHRF1 (Np95) is ~1.5 fold vs C-C'.
